Data on one molecule can be found in publication PMC11301264, “Bactericidal human monoclonal antibody 1B1 shows specificity for meningococcal factor H binding protein variant 2 and displaces human factor H” (FASEB BioAdvances, 2024).

The target of test [1] is T1, factor H binding protein (fHbp) variant 2.16, wild type, recombinant (Neisseria meningitidis serogroup B, …, strain).
T1 construct: Construct described in earlier work; vector pET-21b is named for the template plasmid; also called fHbp var 2; v2.16
T1 chain: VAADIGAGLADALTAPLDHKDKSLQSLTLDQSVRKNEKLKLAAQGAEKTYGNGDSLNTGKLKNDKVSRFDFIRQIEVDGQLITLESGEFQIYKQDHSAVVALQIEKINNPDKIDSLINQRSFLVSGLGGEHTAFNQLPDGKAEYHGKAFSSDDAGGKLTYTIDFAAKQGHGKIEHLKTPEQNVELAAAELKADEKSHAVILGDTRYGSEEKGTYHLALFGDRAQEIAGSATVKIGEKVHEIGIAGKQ
Put plainly: BLI; mAb (1B1 or 4B3, 10 mcg/mL) captured via Fc on Anti-Fc Human (AHC) biosensors; fHbp in solution, 150 to 1 nM; 30°C; 1 x PBS, 1% (w/v) BSA; 1:1 fit. The conditions noted are these: both partners purified.

Test [2] addresses fHbp variant 1.1 on live meningococci of MenB strain MC58 (Neisseria meningitidis (endogenous in strain MC58)) (UniProt Q9JXV4).
The target of test [3] is fHbp variant 3.28 on live meningococci of MenB strain M1239 (Neisseria meningitidis (endogenous in strain M1239)) (UniProt E6MV22).

Broadly, the Kd is a measure of binding affinity in units of concentration.

B1: human monoclonal antibody 1B1, full-length IgG1 (antibody, V domains shown)
VH: EVQLVESGGNLVQPGGSLRLSCAASGFTFSSYSMNWVRQAPGKGLEWVSYISSSSSTIYYADSVKGRFTISRDNAKNSLYLQMNSLRAEDTAVYYCARVAAGLKDWGQGTLVTVSS
VL: EIVLTQSPGTLSLSPGERATLSCRASQSISSSYLAWYQQKPGQAPRLLIFGASSRATGIPDRFSGSGSGTGFTLTISRLEPEDFAVYYCQHYDSSLPMTFGQGTKVEIK
notes: also called humAb 1B1; mAb 1B1; source: mammalian cells, recombinant, purified as described previously
On to B1, for which the dissociation constant Kd in test [1] was found to be 0.24 nM. In test [2], this molecule gave a hSBA (human complement) titer against MenB strain MC58 of less than 4 titer and a rSBA (rabbit complement) titer against MenB strain MC58 of less than 16 titer. In test [3], this molecule yielded a hSBA (human complement) titer against strain 5/99DD complemented with fHbp 3.28 of less than 4 titer and a rSBA (rabbit complement) titer against strain 5/99DD complemented with fHbp 3.28 of less than 16 titer.
